T1: recombinant human soluble gpNMB (recombinant human gpNMB-FLAG-His) (human, UniProt Q14956 23-498)
T1 sequence: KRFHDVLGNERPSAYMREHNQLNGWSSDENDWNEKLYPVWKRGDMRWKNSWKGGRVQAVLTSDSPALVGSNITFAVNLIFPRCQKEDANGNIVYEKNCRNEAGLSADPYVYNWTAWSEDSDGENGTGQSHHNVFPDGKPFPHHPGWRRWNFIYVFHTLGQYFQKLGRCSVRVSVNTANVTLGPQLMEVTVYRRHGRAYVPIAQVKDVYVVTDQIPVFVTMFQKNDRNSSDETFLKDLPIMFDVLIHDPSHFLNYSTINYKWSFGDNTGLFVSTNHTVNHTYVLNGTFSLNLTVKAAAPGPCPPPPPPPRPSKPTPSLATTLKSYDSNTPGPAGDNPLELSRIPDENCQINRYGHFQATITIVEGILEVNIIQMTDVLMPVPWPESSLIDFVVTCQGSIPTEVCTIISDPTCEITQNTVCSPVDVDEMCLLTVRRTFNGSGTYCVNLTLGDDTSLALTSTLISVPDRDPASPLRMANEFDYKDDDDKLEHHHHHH

T2: recombinant mouse soluble gpNMB (recombinant mouse gpNMB-FLAG-His) (mouse, UniProt Q99P91 23-502)
T2 sequence: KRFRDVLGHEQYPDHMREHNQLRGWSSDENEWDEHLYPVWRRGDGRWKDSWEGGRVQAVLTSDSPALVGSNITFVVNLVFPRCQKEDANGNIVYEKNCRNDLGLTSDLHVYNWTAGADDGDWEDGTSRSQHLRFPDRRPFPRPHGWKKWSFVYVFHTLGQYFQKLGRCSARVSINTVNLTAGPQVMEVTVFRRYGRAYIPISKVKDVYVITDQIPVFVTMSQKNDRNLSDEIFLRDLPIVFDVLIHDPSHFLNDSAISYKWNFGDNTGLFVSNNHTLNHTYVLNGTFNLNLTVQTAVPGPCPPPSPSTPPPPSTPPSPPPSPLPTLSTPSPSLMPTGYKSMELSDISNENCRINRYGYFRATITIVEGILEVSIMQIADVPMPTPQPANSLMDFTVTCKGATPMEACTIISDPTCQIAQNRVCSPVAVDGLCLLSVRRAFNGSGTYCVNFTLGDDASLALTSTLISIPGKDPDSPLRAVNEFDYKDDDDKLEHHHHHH


Assays:
[1] = target: T1, recombinant human soluble gpNMB …; assay: SPR, antibody 100 nM over captured gpNMB-FLAG-His, 25C
[2] = target: T2, recombinant mouse soluble gpNMB …; assay: as above

Binder | Kd [1] [nM] | koff [1] [s⁻¹] | kon [1] [M⁻¹ s⁻¹] | Kd [2] [nM] | koff [2] [s⁻¹] | kon [2] [M⁻¹ s⁻¹]
GPN15-3 (antibody, V domains shown, monoclonal with mouse IgG constant regions) VH: QVTLKESGPGILQPSQTLSLTCSFSGFSLTTSGMGVGWIRQPSGKGLEWLADMWWDDDKNYNPSLKSRLTISKDNSKKQVFLKIASVDTADTATYYCARRVYSSWFAYWGQGTLVTVSA VL: DIVMTQSQKFMSTSVGDRVSVTCKASQNVGANVAWYQQKPGQSPKTLIYSASYRYGGVPDRFTGSGSGTDFTFTITNVQSEDLAEYFCQQYNNYPLTFGAGTKLDLK | 2.9 | 0.00037 | 130000 | 2.9 | 0.00036 | 130000
GPN11-10 (antibody, V domains shown, monoclonal with mouse IgG constant regions) VH: QVNLLQSGAALVKPGASVRLSCKTSGYTFTDCYIHWVRQSHGKSLEWIGFINPNSGYTFYNEKFKSKATLTVAKSTNTAYMELSRLTSEDSATYFCTRGDYYTSNLYDWFAYWGQGTLVTVSS VL: DTVMTQSPASMSTSVGERVTVNCKASQTVGTVVAWFQQKPGQSPKRLIYWATNRHTGVPDRFTGSGFGRDFSLTISNVEAEDLAVYYCLQYGSVPPTFGGGTKLELK | 13 | 0.001 | 81000 | 4.9 | 0.00037 | 75000
GPN09-1 (antibody, V domains shown, monoclonal with mouse IgG constant regions) VH: QVQLKASGPGLVQPSQTLSLTCTVSGLSLTSININWIRQPPGKGLEWMGVIWSDGDTDFNSAVKSRLSISRDTSKSQVFLNMNSLQTEDTAMYFCARGIRDWGQGVMVTVSS VL: DIVMTQTPLSLSVAIGQSASISCKSSQSLKYSDGKTYLNWVFQSPGQSPKRLIYQVSKLDSGVPDRFSGTGSETDFTLKISRVEAEDLGVYYCCQGSYSPHTFGSGTKLEIK |  |  |  | 2.6 | 0.00042 | 160000
GPN18-5 (antibody, V domains shown, monoclonal with mouse IgG constant regions) VH: QVQLQQSGAELAKPGTSVKMSCKASGYTFTTYWMNWVKQRPGQDLEWIGAINPSNDYTEYNQKFKDKAILTADKSSNTAYMQLSSLTSEDSAVYYCGRSYSPDYWGQGTTLTVSS VL: DIVMTQSQKFMSTSVGDRVSVTCKASQNVDNHVAWHQQKPGQSPKALIYSASYRYSGVPDRFTGSGSGTDFTLTIRDVQSEDLADYFCQQYKSYPFTFGSGTELEIK | 2 | 0.0003 | 150000 | 7.7 | 0.0007 | 91000
GPN05-1 (antibody, V domains shown, monoclonal with mouse IgG constant regions) VH: QVQLQQSGAELVRPGTSVKVSCKASGYAFSNHLIEWVKQRPGQGLEWIGVINPGSGGTNYIEKFKGKATLTADKSSSTAYMQLSSLTSDDSAVYFCARGANWDVGFAYWGQGTLVTVSA VL: EIQMTQSPSSMSASLGDRITITCQATQDIVKNLNWYQQKPGKPPSFLIYYATELAEGVPSRFSGSGSGSDFSLTISNLESEDFADYYCLQFHEFPRTFGGGTKLEIK | 3.3 | 0.00016 | 48000 | 20 | 0.0013 | 61000
GPN18-6 (antibody, V domains shown, monoclonal with mouse IgG constant regions) VH: EVQLQQSGPELVMPGSSVKISCKASGYTFTDYYMNWVRQSHGKSLEWIGDINPINGDITYNQKFKGKATLTVDKSSSTDYMELRGLTSEDSAVYYCAREAFFGYKGNYFDYWGQGTTLTVSS VL: not shown | 24 | 0.00065 | 27000 | 31 | 0.00098 | 32000
GPN06-1 (antibody, V domains shown, monoclonal with mouse IgG constant regions) VH: QVQLQQPGAEIVRPGASVKLSCKASGYTFTDNWMGWVKQRPGQGLEWIGAIDPSDSFTNYNQNFKGKATLTVDTSSSTAYMQLSSLTSEDSAVYFCTRSGYYGSPKLGGDYWGQGTTLTVSS VL: QIVLTQSPAIMSASLGEEITLTCSASSSISYMHWYQQKSGTSPKLLIYSTSNLASGVPSRFSGSGSGTFYSLTISSVEAEDAADYYCHQWNSYPCTFGGGTKLEIK | 1.4 | 0.00049 | 340000 | 12 | 0.0018 | 150000
GPN15-2 (antibody, V domains shown, monoclonal with mouse IgG constant regions) VH: QVQLQQPGAELVKPGASVKMSCKASGYTFTNHNMHWVKQTPGQGLEWIGAFYTGNGDTSYNQKFKGKATLTADKSSSTAYIQLSSLTSEDSAVYYCARERYDGYYIAMDYWGQGTSVTVSS VL: QIVLTQSPAFMSVSPGEKVTMTCSASSSVYYMFWYQQKPRSSPKPWIYLTSKLASGVPARFSGSGSGTSYSVTISSMEAEDAATYYCQQWSSNPQWTFGGGTKLEIK | 0.0035 | 6e-07 | 170000 | 2 | 0.00028 | 140000
1-5E (antibody, V domains shown, obtained by immunization with a vaccine peptide of a previous report; also called vaccine peptide antibody) VH: EVQLQQSGAELVRSGASVKLSCTASGFNIKDYYMHWVKQRPDQGLEWIGWIDPENGDTEYAPKFQGKATMTADTSPNTAYLQLSSLTSEDTAVYYCNGVYYGSRGFFDYWGQGTTLTVSS VL: not shown |  |  |  | 9.1 | 0.0061 | 670000
GPN18-1 (antibody, V domains shown, monoclonal with mouse IgG constant regions) VH: QVTLKESGPGILQPSQTLSLTCSFSGFSLSTSVMGVGWIRQPSGKGLEWLADIWWDDDKDYNPSLKSRLTISKDTSKNQVFLKIASVDTADTATYYCARAYYSNYEYYGMDYWGQGTSVTVSS VL: DVLMTQTPLSLPVSLGDQASISCRSSQSIVHSNGNTYLEWYLQKPGQSPKLLIYKVSNRFSGVPDRFSGSGSGTDFTLKISRVEAEDLGVYYCFQGSHVPFTFGSGTKLEIK | 14 | 0.00054 | 38000 | 24 | 0.00091 | 38000
GPN18-2 (antibody, V domains shown, monoclonal with mouse IgG constant regions) VH: QVTLKESGPGILQPSQTLSLTCSFSGFSLSTSVMGVGWIRQPSGKGLEWLADIWWDDDKDYNPSLKSRLTISKDTSKNQVFLKIASVDTADTATYYCARTYYSNYEYYGMDYWGQGTSVTVSS VL: DVLMTQTPLSLPVSLGDQASISCRSSQTIILSNGNTYLEWYLQKPGQSPKLLIYKVSNRFSGVPDRFSGSGSGTDFTLKISRVEAEDLGVYYCFQGSHVPFTFGSGTKLEIK | 2.2 | 6.8e-05 | 31000 | 3.3 | 7.9e-05 | 24000
GPN18-7 (antibody, V domains shown, monoclonal with mouse IgG constant regions) VH: QVTLKESGPGILQPSQTLSLTCSFSGFSLSTSVMGVGWIRQPSGKGLEWLADIWWDDDKDYNPSLKSRLTISKDTSKNQVFLKIASVDTADTATYYCARAYYSNFEYYGMDYWGQGTSVTVSS VL: DVLMTQIPLSLPVSLGDQASISCRSSQTIVHSNGNTYLEWYLQKPGQSPKLLIYKVSNRFSGVPDRFSGSGSGTDFTLKISRVEAEDLGVYYCFQGSHVPFTFGSGTKLEIK | 23 | 0.00059 | 26000 | 49 | 0.00099 | 20000
GPN18-4 (antibody, V domains shown, monoclonal with mouse IgG constant regions) VH: QVQLQQSGAELTKPGTSVKMSCKASGYTLSSYWMNWIKQRPGQGLEWIGTINPSNNYTAYNLKFKDKAMLTADKSSSTAYMQLSSLTSEDSAVYYCATWGYWGQGTTLTVSS VL: DIVMTQSHKFMSTSVGDRVSITCKASQDVSTAVAWHQQKPGQPPKLLIYSASYRYTGVPDRFTGSGSGTDFTFTISSVQTEDLAIYYCQHHYTTTWTFGGGTKLEIR | 0.32 | 1.5e-05 | 47000 | 3.8 | 0.00012 | 30000
